The target in this assay is T1, BabA^AD (residues 25 to 460 of mature BabA) (Helicobacter pylori 17875/Leb (CCUG …)).
T1 chain: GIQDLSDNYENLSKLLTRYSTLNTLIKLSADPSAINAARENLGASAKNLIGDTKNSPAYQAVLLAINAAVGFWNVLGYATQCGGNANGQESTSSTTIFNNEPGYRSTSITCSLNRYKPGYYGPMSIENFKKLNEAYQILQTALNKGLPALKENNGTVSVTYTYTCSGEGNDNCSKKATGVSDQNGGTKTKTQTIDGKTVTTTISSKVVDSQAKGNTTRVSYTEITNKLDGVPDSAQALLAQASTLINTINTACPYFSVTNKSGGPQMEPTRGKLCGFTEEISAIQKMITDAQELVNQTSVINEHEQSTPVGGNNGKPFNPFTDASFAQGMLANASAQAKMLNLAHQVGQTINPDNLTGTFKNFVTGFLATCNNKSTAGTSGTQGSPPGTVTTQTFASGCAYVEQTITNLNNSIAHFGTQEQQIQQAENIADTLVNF
Put plainly: crystal structure.

B1: nanobody Nb-ER19 (VHH)
VHH: QVQLQESGGGLVQPGGSLRLSCAASGSIFSGNVMGWYRQAPGKLREWVAAITPQGVPNYADSVKGRFTISRDNAKNMLYLQMSSLKPEDTALYYCNRLPNYRSWGQGTQVTVSS
As to B1, the binding result was “binds”.
